Data published in paper PMC12052686, “NADK tetramer defective mutants affect lung cancer response to chemotherapy via controlling NADK activity” (Genes & Diseases, 2025).
Substitutions are numbered along the chain they refer to. One block for each molecule: values may come before it.

Tests used:
[1] = biological target: T1, human NADK (cNADK, full-length) (Homo sapiens, UniProt O95544, C349S); assay: isothermal titration calorimetry; assay type: binding
T1 construct: full-length, modified pET28a, His tag cleaved by TEV, E. coli BL21, HisTrap / Resource Q / Superdex 200, tetramer
T1 sequence (O95544 1-446 C349S): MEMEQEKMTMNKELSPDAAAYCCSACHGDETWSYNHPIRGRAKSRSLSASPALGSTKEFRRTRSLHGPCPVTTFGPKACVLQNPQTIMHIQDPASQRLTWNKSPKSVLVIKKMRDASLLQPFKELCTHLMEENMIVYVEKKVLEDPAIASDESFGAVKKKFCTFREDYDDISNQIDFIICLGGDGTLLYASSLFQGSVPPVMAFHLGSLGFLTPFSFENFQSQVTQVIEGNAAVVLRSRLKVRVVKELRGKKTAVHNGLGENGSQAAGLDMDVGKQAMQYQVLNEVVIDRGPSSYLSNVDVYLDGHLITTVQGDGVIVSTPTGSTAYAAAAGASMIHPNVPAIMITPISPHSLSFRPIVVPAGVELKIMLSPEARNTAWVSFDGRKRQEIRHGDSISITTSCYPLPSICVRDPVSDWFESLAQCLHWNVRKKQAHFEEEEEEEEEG

[2] = biological target: the molecule itself; assay: SEC; lysates of transfected HEK293T cells with endogenous NADK knocked out, Superdex 200 Increase 10/300 GL, 0.5 mL/min; fractions analysed by immunoblotting
[3] = biological target: the molecule itself; assay: cryo-EM structure; single-particle cryo-EM of the purified, substrate-free NADK tetramer (10 mg/mL); 2.54 Å

Kd [1]: 86.9 µM
Molecule: NC(=O)c1ccc[n+]([C@@H]2O[C@H](COP(=O)([O-])OP(=O)(O)OC[C@H]3O[C@@H](n4cnc5c(N)ncnc54)[C@H](O)[C@@H]3O)[C@@H](O)[C@H]2O)c1 [NAD^+]

B1: N-terminal truncated NADK (95-446) (domain or fragment, human, UniProt O95544 95-446, looked up)
chain: SQRLTWNKSPKSVLVIKKMRDASLLQPFKELCTHLMEENMIVYVEKKVLEDPAIASDESFGAVKKKFCTFREDYDDISNQIDFIICLGGDGTLLYASSLFQGSVPPVMAFHLGSLGFLTPFSFENFQSQVTQVIEGNAAVVLRSRLKVRVVKELRGKKTAVHNGLGENGSQAAGLDMDVGKQAMQYQVLNEVVIDRGPSSYLSNVDVYLDGHLITTVQGDGVIVSTPTGSTAYAAAAGASMIHPNVPAIMITPICPHSLSFRPIVVPAGVELKIMLSPEARNTAWVSFDGRKRQEIRHGDSISITTSCYPLPSICVRDPVSDWFESLAQCLHWNVRKKQAHFEEEEEEEEEG
notes: also called ΔN95; N-terminal truncation mutant; source: HEK293T with endogenous NADK knocked out, transfected, in lysate
stoichiometry N [2]: 4

B2: full-length human NADK (NAD+ kinase), purified tetramer (enzyme, UniProt O95544 1-446, looked up)
chain: T1 sequence (O95544 1-446 C349S) with S349C
notes: Cloned in a modified pET28a vector; the tetramer peak of the Superdex 200 column was collected for cryo-EM; In the map the protomers are visible only from residues 98, 95, 96 and 98; also called cNADK; cytoplasmic NADK; source: E. coli BL21, purified (HisTrap FF, TEV cleavage, Resource Q, Superdex 200 Increase)
stoichiometry N [3]: 4
